# Data taken from the RNAGym collection of RNA variant scans (doi:10.1021/acssynbio.7b00057).
# B1: Pistol ribozyme (parent)
# chain: GGGUCGUUGUUCCAUAAUCGCGUGGAUAUGGCACGCAAGUUUCUACCGGGCACCGUAAAUGUCCGACUGGAGCCGUUCGGGCGGCUAUAAACAGACCUCAGGCCCGAAGCGUGGCGGCACCUGCCGCCGGUGGUAAAAAAGAUCGGAAGAGCACACGUCU
# Variants of: B1
# Assay: aptazyme ON/OFF ratio, guanine; higher = stronger switching; co-transcriptional cleavage with and without guanine
row,Variant,aptazyme ON/OFF ratio
1,U7A U8C G9C U11A C13U,1.05
2,U7A U8C G9C U11A C13A,1.05
3,U7A U8C G9U U10A U11C C12U C13U,1.18
4,U7A U8C G9U U10A U11C C12U C13G,1.12
5,U7A U8C G9U U10A U11C C12U C13A,1.1
6,U7A U8C G9C U10C U11C C12G,1.03
7,U7A U8C G9C U10C U11C C12U,0.94
8,U7A U8C G9C U10C U11C C12A,1.05
9,U7A U8C G9C U10G U11G C13A,1.12
10,U7A U8C G9C U10G U11G C13G,1.08
11,U7A U8C G9C U10G U11G C13U,1.09
12,U7A U8C G9C U10A U11C C12U,1.13
13,U7A U8C G9C U10A U11C C12A,1.1
14,U7A U8C G9C U10A U11C C12G,1.26
15,U7A U8C G9U U10C U11A C12A C13A,1.12
16,U7A U8C G9U U10C U11A C12A C13G,1.1
17,U7A U8C G9U U10C U11A C12A C13U,1.12
18,U7A U8C G9C U10C U11C C12A C13A,0.998
19,U7A U8C G9C U10C U11C C12A C13U,0.998
20,U7A U8C G9C U10C U11C C12A C13G,1.03
21,U7A U8C G9C U10C U11A C12A C13G,1.06

row,Variant,aptazyme ON/OFF ratio
1,U7A U8C G9C U10C U11A C12A C13U,1.03
2,U7A U8C G9C U10C U11A C12A C13A,1.01
3,U7A U8C G9U U10A C12A C13U,1.18
4,U7A U8C G9U U10A C12A C13G,1.15
5,U7A U8C G9U U10A C12A C13A,1.12
6,U7A U8C G9U U10C U11C C12G C13U,1.04
7,U7A U8C G9U U10C U11C C12G C13A,1.04
8,U7A U8C G9U U10C U11C C12G C13G,1.22
9,U7A U8C G9C U10C U11C C12G C13G,1.09
10,U7A U8C G9C U10C U11C C12G C13A,1.02
11,U7A U8C G9C U10C U11C C12G C13U,1.07
12,U7A U8C G9C U10C U11G C12U C13U,1.09
13,U7A U8C G9C U10C U11G C12U C13G,1.11
14,U7A U8C G9C U10C U11G C12U C13A,1.09
15,U7A U8C G9C U10G C12U C13U,1.26
16,U7A U8C G9C U10G C12U C13A,1.06
17,U7A U8C G9C U10G C12U C13G,1.11
18,U7A U8C G9C U11C C12U C13G,1.09
19,U7A U8C G9C U11C C12U C13U,1.06
20,U7A U8C G9C U11C C12U C13A,1.04
21,U7A U8C G9C U10G U11A C13U,1.02

row,Variant,aptazyme ON/OFF ratio
1,U7A U8C G9C U10G U11A C13A,1.05
2,U7A U8C G9C U10G U11A C13G,1.1
3,U7A U8C G9C U11G C12G C13U,1.11
4,U7A U8C G9C U11G C12G C13A,1.12
5,U7A U8C G9C U11G C12G C13G,1.12
6,U7A U8C G9C U10G C12A,1.07
7,U7A U8C G9C U10G C12U,1.02
8,U7A U8C G9C U10G C12G,1.12
9,U7A U8C G9C U10A U11C C13U,1.12
10,U7A U8C G9C U10A U11C C13G,1.46
11,U7A U8C G9C U10A U11C C13A,1.41
12,U7A U8C G9C U10G U11G C12U C13U,1.1
13,U7A U8C G9C U10G U11G C12U C13A,1.07
14,U7A U8C G9C U10G U11G C12U C13G,1.1
15,U7A U8C G9U U10A U11G C13U,1.23
16,U7A U8C G9U U10A U11G C13A,1.17
17,U7A U8C G9U U10A U11G C13G,1.1
18,U7A U8C G9U U10C U11A C12A,1.14
19,U7A U8C G9U U10C U11A C12G,1.13
20,U7A U8C G9U U10C U11A C12U,1.13
21,U7A U8C G9U C12G,1.45

row,Variant,aptazyme ON/OFF ratio
1,U7A U8C G9U C12U,1.33
2,U7A U8C G9U C12A,1.26
3,U7A U8C G9C U11A C12U,1.05
4,U7A U8C G9C U11A C12G,1.09
5,U7A U8C G9C U11A C12A,1.08
6,U7A U8C G9C U10C U11G C13G,1.16
7,U7A U8C G9C U10C U11G C13U,1.04
8,U7A U8C G9C U10C U11G C13A,1.07
9,U7A U8C G9C U11C C13G,1.04
10,U7A U8C G9C U11C C13U,1.03
11,U7A U8C G9C U11C C13A,1.05
12,U7A U8C G9U U10A U11A,1.37
13,U7A U8C G9U U10A U11C,1.01
14,U7A U8C G9U U10A U11G,1.31
15,U7A U8C G9C U10C C12G C13A,1.04
16,U7A U8C G9C U10C C12G C13G,1.12
17,U7A U8C G9C U10C C12G C13U,1.08
18,U7A U8C G9U C12U C13G,1.12
19,U7A U8C G9U C12U C13U,1.39
20,U7A U8C G9U C12U C13A,1.22
21,U7A U8C G9C U10G U11A C12U C13A,1.07
